Data: paper PMC3604133

Target: Aβ40-S26C (synthetic human Aβ1-40 in which Ser26 was changed to cysteine) (human)
Test: SEC

stoichiometry N: 2
Substance: Aβ40-S26C (synthetic human Aβ1-40 in which Ser26 was changed to cysteine) (peptide)
